This passage reports Kd, koff and kon results from patent US20260116990A1.

Assay [1] has as its target His-tagged ectodomain of human transferrin receptor 1 (hTfR1, R121-F760) (human) (UniProt P02786). Kind of assay: SPR; binder on protein A chip, hTfR1 as analyte, without hTf.
Assay [2] has the same target. The experiment in a line: SPR; binder on protein A chip, hTfR1 as analyte, in presence of 250 nM hTf. In general terms: Surface plasmon resonance follows binding to a sensor surface in real time, without labels.
Assay [3] shares this target. Kind of assay: SPR Biacore T200 single-cycle; hTfR1 captured on amine-coupled hTf, binder as analyte; 1:1 model.

Sequence of His-tagged ectodomain of human transferrin receptor 1 (hTfR1, R121-F760) (human) (P02786 other isoform, or with tags, fused parts or gaps limits assumed): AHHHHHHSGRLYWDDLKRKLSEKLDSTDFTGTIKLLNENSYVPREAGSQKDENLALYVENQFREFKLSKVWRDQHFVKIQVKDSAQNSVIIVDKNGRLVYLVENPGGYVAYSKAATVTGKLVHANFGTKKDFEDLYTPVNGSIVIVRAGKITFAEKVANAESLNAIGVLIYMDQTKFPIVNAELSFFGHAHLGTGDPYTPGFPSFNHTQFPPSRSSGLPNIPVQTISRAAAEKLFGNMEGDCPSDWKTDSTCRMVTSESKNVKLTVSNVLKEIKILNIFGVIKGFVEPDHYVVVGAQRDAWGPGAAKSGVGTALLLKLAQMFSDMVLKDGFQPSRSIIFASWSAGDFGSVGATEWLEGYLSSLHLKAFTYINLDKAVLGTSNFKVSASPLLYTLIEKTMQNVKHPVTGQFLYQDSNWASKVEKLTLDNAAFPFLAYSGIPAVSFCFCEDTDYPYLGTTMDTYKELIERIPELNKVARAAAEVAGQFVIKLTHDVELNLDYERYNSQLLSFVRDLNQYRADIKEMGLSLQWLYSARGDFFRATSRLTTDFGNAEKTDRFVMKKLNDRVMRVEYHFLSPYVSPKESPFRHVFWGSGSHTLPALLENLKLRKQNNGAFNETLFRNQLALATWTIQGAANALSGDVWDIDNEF

In assay [1], “Benchmark antibody 128.1 (BA1), full length human IgG1” yielded a Kd of 0.101 nM, a koff of 8.87e-05 s⁻¹ and a kon of 882000 M⁻¹ s⁻¹. Also, in assay [2], the Kd was found to be 0.0834 nM, the koff came out at 5.77e-05 s⁻¹ and the kon is 692000 M⁻¹ s⁻¹. Also, in assay [3], the Kd is 0.0199 nM, the koff stood at 5.63e-05 s⁻¹ and the kon amounted to 2.82e+06 M⁻¹ s⁻¹.

The term Kd denotes the free concentration of one partner at which half of the binding sites on the other are occupied at equilibrium, for simple one-to-one binding. Broadly, the koff is a measure of how fast the partners let go of each other. Usually kon stands for a measure of how fast the partners come together.
